In the supplement of paper PMC10724198:
± gives the standard deviation of the averaged measurements.
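Further: PSI is a weighted mean of sequencing reads over stability bins, variants kept only with over 10 reads, mCherry proximal and sfGFP distal, peptide attached via GGGS linker.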

What follows are sequences tested on Saccharomyces cerevisiae (assay: protein stability index of tFT-peptide fusion (C-terminal peptide) (PSI (0-1 scale)); higher = more stable (slower turnover)). Conditions: genetic background: wild type; temperature: 30 C.
Sequence WRPPPPYSPFSL has a protein stability index of 0.74 ± 0.066.
In the case of LPILRVVNLMGL, the protein stability index is reported as 0.5935 ± 0.0048.
In the case of PCPRIPSSRRLA, the protein stability index is reported as 0.574 ± 0.044.
RRHLSLCLLPSL was tested, and the protein stability index was 0.685 ± 0.011.
RSGRGRRGVGWV was tested, and the protein stability index was 0.655 ± 0.038.
Sequence GVVVGCGYGLVG has a protein stability index of 0.665 ± 0.04.
RSPSTRHVGLSW showed a protein stability index of 0.6696 ± 0.00085.
With LMYGCAQHRNRS the protein stability index was 0.61 ± 0.033.
In the case of PRPRPSPLPPPS, the protein stability index is reported as 0.751 ± 0.13.
TWRWVGGRWSGL gave a protein stability index of 0.5601 ± 0.0026.
SCYHGDYCTVAW was tested, and the protein stability index was 0.7062 ± 0.0017.
GTGMHEGEPGEV was tested, and the protein stability index was 0.686 ± 0.046.
VSQLGTYICSYL gave a protein stability index of 0.687 ± 0.053.
Sequence PSRRPPPPPFLP has a protein stability index of 0.7 ± 0.036.
HVPGKWTLGFGI was tested, and the protein stability index was 0.761 ± 0.054.
Work on DPAKRTLTRSRR yielded a protein stability index of 0.673 ± 0.0079.
IITAARGDTLSR gave a protein stability index of 0.706 ± 0.018.
SRSPPRSGVPPL gave a protein stability index of 0.716 ± 0.032.
For RPAGGPSGGEGV, the protein stability index was 0.689 ± 0.074.
DEGFSRSGLLLK gave a protein stability index of 0.6921 ± 0.003.
Sequence RTGSCSCQRKPE has a protein stability index of 0.663 ± 0.017.
GGGSGKSGNLYS showed a protein stability index of 0.687 ± 0.06.
PFPLPPLHSSHR was tested, and the protein stability index was 0.734 ± 0.03.
HPLPTPSPHLSP showed a protein stability index of 0.728 ± 0.016.
Sequence KFKGIKEINNGN has a protein stability index of 0.633 ± 0.074.
Work on MKSSPFRASLDT yielded a protein stability index of 0.676 ± 0.094.
For PHPRSVSPPPPS, the protein stability index was 0.624 ± 0.075.
In the case of LVLERKVDSKRK, the protein stability index is reported as 0.761 ± 0.084.
With FCRFCEFIFIFL the protein stability index was 0.499 ± 0.056.
Sequence PPLLPPPSPPPP has a protein stability index of 0.684 ± 0.04.
With VVLFFGPRWSLG the protein stability index was 0.624 ± 0.068.
Work on LKFLFTYLGFLS yielded a protein stability index of 0.532 ± 0.03.
Work on NQAWYFVRLAGD yielded a protein stability index of 0.776 ± 0.022.
SPPICLPLFRVR showed a protein stability index of 0.65 ± 0.017.
Work on RLLHLMCFCSGP yielded a protein stability index of 0.644 ± 0.031.
LKTLKHRLRHLE gave a protein stability index of 0.732 ± 0.034.
Work on RSPLPFPGASVP yielded a protein stability index of 0.747 ± 0.039.
With MALAVRVVNCGA the protein stability index was 0.591 ± 0.0087.
Sequence PLPPPSGLLSRL has a protein stability index of 0.902 ± 0.047.
CVAACSGHAAVG showed a protein stability index of 0.692 ± 0.017.
Work on LLPPPLPQAPPT yielded a protein stability index of 0.708 ± 0.03.
ARCSDPSAATHT was tested, and the protein stability index was 0.706 ± 0.038.
With APPARGTGRASL the protein stability index was 0.738 ± 0.017.
ARSDRLPNILPY showed a protein stability index of 0.679 ± 0.071.
PVPPRLPLPAPL gave a protein stability index of 0.757 ± 0.051.
In the case of QEEKLSKNSKKK, the protein stability index is reported as 0.691 ± 0.036.
LHGASLCVPPSP showed a protein stability index of 0.5205 ± 0.0013.
GVCLGCWCWWVG was tested, and the protein stability index was 0.604 ± 0.044.
Sequence VTLRASGQVFPF has a protein stability index of 0.7891 ± 0.0069.
Sequence SSSPLLDPPLPH has a protein stability index of 0.68 ± 0.017.
Sequence ASPRLTGCPNPR has a protein stability index of 0.6863 ± 0.002.
Sequence PPIPPPPPLPPP has a protein stability index of 0.621 ± 0.023.
In the case of PSNSRPRASPAC, the protein stability index is reported as 0.67 ± 0.039.
Sequence GLPHPPPHPFSL has a protein stability index of 0.763 ± 0.055.
Work on GIVFGMRKSDFK yielded a protein stability index of 0.764 ± 0.1.
For TLYKSEQIAFFL, the protein stability index was 0.644 ± 0.047.
TGEVPPPRCEGE showed a protein stability index of 0.638 ± 0.014.
For SSTDLLDLALLV, the protein stability index was 0.718 ± 0.094.
MRRAQADRVYRL gave a protein stability index of 0.7097 ± 0.0024.
Sequence LCGLDCLLRPCY has a protein stability index of 0.681 ± 0.011.
QVWMRDCARKFQ showed a protein stability index of 0.731 ± 0.012.
In the case of QSSWGGRWVRGG, the protein stability index is reported as 0.669 ± 0.011.
GIKRKEKEKKNN gave a protein stability index of 0.615 ± 0.026.
VIEWFVRGRVGG showed a protein stability index of 0.7032 ± 0.00085.
For KGRFILKCKDIF, the protein stability index was 0.637 ± 0.071.
IASNAENCDVGV was tested, and the protein stability index was 0.695 ± 0.11.
VSGFFFWRSSFV showed a protein stability index of 0.678 ± 0.028.
For YKRRYTKNQIRK, the protein stability index was 0.666 ± 0.054.
Sequence RARASLIPNAGT has a protein stability index of 0.705 ± 0.037.
For VLFPSPSPPLSS, the protein stability index was 0.7 ± 0.0071.
SPIHSLNYASSC showed a protein stability index of 0.7217 ± 0.0015.
For PLHPSRPPPSSP, the protein stability index was 0.708 ± 0.033.
SWVSQFLVFWPV was tested, and the protein stability index was 0.716 ± 0.044.
AVISDVSLKPNF showed a protein stability index of 0.673 ± 0.082.
With ARIGVQRFSGVV the protein stability index was 0.708 ± 0.019.
LLPPPPTPPLNL was tested, and the protein stability index was 0.688 ± 0.033.
Sequence FSLPSVPCATYR has a protein stability index of 0.678 ± 0.043.
SPRPPLLLPVTV was tested, and the protein stability index was 0.53 ± 0.26.
SSLLPSPPPPLP gave a protein stability index of 0.677 ± 0.028.
In the case of LFLVWSLGSGRN, the protein stability index is reported as 0.672 ± 0.098.
RIKNMNNNEEKR gave a protein stability index of 0.714 ± 0.2.
GGGPGRCAGGGR gave a protein stability index of 0.669 ± 0.024.
EGGGGGGAPRVR gave a protein stability index of 0.752 ± 0.093.
TSPLSPAPPPPR was tested, and the protein stability index was 0.641 ± 0.083.
Sequence ESEGSGVGACGG has a protein stability index of 0.681 ± 0.02.
For GRLIGICECLSV, the protein stability index was 0.622 ± 0.017.
For RCVGWRRTPESS, the protein stability index was 0.739 ± 0.064.
FVFPFHSRGVSQ showed a protein stability index of 0.647 ± 0.015.
VRCSLPSPSPRP was tested, and the protein stability index was 0.77 ± 0.015.
RAKRADPSGPPR was tested, and the protein stability index was 0.724 ± 0.051.
NQEPRVSFCRDS was tested, and the protein stability index was 0.716 ± 0.044.
In the case of VSGVVHRVVVSR, the protein stability index is reported as 0.7 ± 0.043.
VGTSVTSSFRGK was tested, and the protein stability index was 0.591 ± 0.078.
IASLVSVCFLRD was tested, and the protein stability index was 0.683 ± 0.029.
VVELRGEKLVGR showed a protein stability index of 0.6784 ± 0.005.
SVTSKDEYDLEE was tested, and the protein stability index was 0.694 ± 0.043.
Work on YDVLGLFPICKW yielded a protein stability index of 0.729 ± 0.06.
SPCTPSRLQPSS showed a protein stability index of 0.65 ± 0.027.
SFDPPYALLPPP was tested, and the protein stability index was 0.685 ± 0.02.
YRSPPPLRGLIP gave a protein stability index of 0.711 ± 0.088.
For RGGGGGRVAREC, the protein stability index was 0.668 ± 0.011.
